Reference: patent EP4818204A1 (Nanjing Leads Biolabs Co., Ltd., dated 2026)
Where two headings read alike, the source gives them in different places.

Assays:
Assay in all cases: ELISA, coated protein, antibody at 4 µg/mL
[1] = target: T1, human GDNF protein (human, UniProt P39905 78-211)
T1 construct: Bought
T1 sequence (looked up): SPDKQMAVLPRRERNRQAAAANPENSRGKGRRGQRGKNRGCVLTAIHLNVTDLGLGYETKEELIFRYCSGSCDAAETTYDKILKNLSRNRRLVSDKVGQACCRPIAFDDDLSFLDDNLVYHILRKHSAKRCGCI

[2] = target: T2, human GFRα1 protein (human, UniProt P56159 25-429, limits assumed)
T2 construct: Bought
T2 sequence (looked up): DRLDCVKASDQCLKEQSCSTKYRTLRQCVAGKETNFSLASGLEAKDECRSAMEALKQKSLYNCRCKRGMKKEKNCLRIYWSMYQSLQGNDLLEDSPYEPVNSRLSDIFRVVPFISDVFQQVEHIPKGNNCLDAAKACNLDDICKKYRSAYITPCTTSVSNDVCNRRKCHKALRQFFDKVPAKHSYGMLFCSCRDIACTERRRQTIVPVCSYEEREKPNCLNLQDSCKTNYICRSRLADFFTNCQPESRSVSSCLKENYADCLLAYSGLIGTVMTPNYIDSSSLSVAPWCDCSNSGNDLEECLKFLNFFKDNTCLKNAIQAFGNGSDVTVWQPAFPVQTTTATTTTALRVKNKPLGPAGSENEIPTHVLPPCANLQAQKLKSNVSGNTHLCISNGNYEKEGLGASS

[3] = target: T3, human GDF3 protein (human, UniProt Q9NR23 251-364, limits assumed)
T3 construct: Bought
T3 sequence (looked up): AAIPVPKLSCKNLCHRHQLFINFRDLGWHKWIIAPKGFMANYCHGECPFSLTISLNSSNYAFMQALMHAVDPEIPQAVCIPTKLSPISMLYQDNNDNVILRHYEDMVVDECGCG

[4] = target: T4, human TGFβ1 protein (human, UniProt P01137 279-390)
T4 construct: Bought
T4 sequence (P01137 279-390 limits assumed): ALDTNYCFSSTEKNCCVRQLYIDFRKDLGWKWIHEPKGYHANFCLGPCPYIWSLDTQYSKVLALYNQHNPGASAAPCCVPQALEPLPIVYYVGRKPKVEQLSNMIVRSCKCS

[5] = target: T5, human BMP2 protein (human, UniProt P12643 283-396)
T5 construct: Bought
T5 sequence (P12643 283-396 limits assumed): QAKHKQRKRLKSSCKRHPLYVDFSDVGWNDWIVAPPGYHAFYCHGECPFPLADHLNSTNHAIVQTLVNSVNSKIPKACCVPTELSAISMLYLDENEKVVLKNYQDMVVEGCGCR

[6] = target: human GDF8 protein (human) (UniProt O14793)
[7] = target: T6, Human GDF15 protein (human, UniProt Q99988 197-308)
T6 construct: Natural GDF15 is said to be a disulfide-linked homodimer; also called Human-GDF15-his
T6 sequence: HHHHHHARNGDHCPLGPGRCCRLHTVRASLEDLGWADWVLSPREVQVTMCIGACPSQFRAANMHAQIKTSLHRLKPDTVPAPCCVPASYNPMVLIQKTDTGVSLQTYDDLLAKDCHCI

[8] = target: T7, human GDF2 protein (human, UniProt Q9UK05 320-429)
T7 construct: Bought
T7 sequence (looked up): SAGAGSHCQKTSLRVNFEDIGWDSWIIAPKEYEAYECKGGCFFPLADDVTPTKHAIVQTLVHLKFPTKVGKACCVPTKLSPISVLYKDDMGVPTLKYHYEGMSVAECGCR

[9] = target: human AMH protein (human) (UniProt P03971)
[10] = target: T8, human Activin B protein (human, UniProt P09529 293-407)
T8 construct: Bought; Activin B is by nature a dimer of inhibin beta B chains
T8 sequence (looked up): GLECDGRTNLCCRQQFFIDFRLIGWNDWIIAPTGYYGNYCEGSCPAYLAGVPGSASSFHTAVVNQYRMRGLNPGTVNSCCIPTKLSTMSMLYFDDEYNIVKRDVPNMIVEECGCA

[11] = target: T9, human Activin A protein (human, UniProt P08476 311-426)
T9 construct: Bought; Activin A is by nature a dimer of inhibin beta A chains
T9 sequence (looked up): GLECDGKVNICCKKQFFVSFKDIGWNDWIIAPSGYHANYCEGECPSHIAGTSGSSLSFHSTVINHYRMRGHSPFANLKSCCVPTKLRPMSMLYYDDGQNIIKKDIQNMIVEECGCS

[12] = target: T10, human GDF11 protein (human, UniProt O95390 299-407)
T10 construct: Bought
T10 sequence (looked up): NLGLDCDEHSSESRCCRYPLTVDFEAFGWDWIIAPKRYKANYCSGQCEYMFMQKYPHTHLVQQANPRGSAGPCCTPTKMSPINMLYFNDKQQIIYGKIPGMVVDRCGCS

[13] = target: T11, human BMP4 protein (human, UniProt P12644 293-408)
T11 construct: Bought
T11 sequence (looked up): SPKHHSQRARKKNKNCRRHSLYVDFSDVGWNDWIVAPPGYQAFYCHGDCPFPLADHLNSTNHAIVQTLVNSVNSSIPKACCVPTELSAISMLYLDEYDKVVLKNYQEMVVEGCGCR

[14] = target: T12, human GDF1 protein (human, UniProt P27539 254-372, limits assumed)
T12 construct: Bought
T12 sequence (looked up): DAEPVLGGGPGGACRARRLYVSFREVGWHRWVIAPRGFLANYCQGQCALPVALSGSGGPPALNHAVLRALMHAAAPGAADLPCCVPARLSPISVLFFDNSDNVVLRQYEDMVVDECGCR

[15] = target: T1, human GDNF protein; remark: listed apart in the source
[16] = target: T2, human GFRα1 protein; remark: listed apart in the source
[17] = target: T3, human GDF3 protein; remark: listed apart in the source
[18] = target: T4, human TGFβ1 protein; remark: listed apart in the source
[19] = target: T5, human BMP2 protein; remark: listed apart in the source
[20] = target: human GDF8 protein (human) (UniProt O14793); remark: listed apart in the source
[21] = target: T6, Human GDF15 protein; remark: listed apart in the source
[22] = target: T7, human GDF2 protein; remark: listed apart in the source
[23] = target: human AMH protein (human) (UniProt P03971); remark: listed apart in the source
[24] = target: T8, human Activin B protein; remark: listed apart in the source
[25] = target: T9, human Activin A protein; remark: listed apart in the source
[26] = target: T10, human GDF11 protein; remark: listed apart in the source
[27] = target: T11, human BMP4 protein; remark: listed apart in the source
[28] = target: T12, human GDF1 protein; remark: listed apart in the source

OD value (OD 450 nm-620 nm) [1]: 0.0493
OD value (OD 450 nm-620 nm) [2]: 0.0807
OD value (OD 450 nm-620 nm) [3]: 0.0556
OD value (OD 450 nm-620 nm) [4]: 0.111
OD value (OD 450 nm-620 nm) [5]: 0.055
OD value (OD 450 nm-620 nm) [6]: 0.0485
OD value (OD 450 nm-620 nm) [7]: 0.043
OD value (OD 450 nm-620 nm) [8]: 0.0444
OD value (OD 450 nm-620 nm) [9]: 0.0569
OD value (OD 450 nm-620 nm) [10]: 0.082
OD value (OD 450 nm-620 nm) [11]: 0.0474
OD value (OD 450 nm-620 nm) [12]: 0.0659
OD value (OD 450 nm-620 nm) [13]: 0.0464
OD value (OD 450 nm-620 nm) [14]: 0.101
OD value (OD 450 nm-620 nm) [15]: 0.036
OD value (OD 450 nm-620 nm) [16]: 0.125
OD value (OD 450 nm-620 nm) [17]: 0.04
OD value (OD 450 nm-620 nm) [18]: 0.0376
OD value (OD 450 nm-620 nm) [19]: 0.0463
OD value (OD 450 nm-620 nm) [20]: 0.0351
OD value (OD 450 nm-620 nm) [21]: 0.0386
OD value (OD 450 nm-620 nm) [22]: 0.0622
OD value (OD 450 nm-620 nm) [23]: 0.0465
OD value (OD 450 nm-620 nm) [24]: 0.168
OD value (OD 450 nm-620 nm) [25]: 0.0524
OD value (OD 450 nm-620 nm) [26]: 0.038
OD value (OD 450 nm-620 nm) [27]: 0.0439
OD value (OD 450 nm-620 nm) [28]: 0.0416
Substance: IgG control (Sino Biological, Cat. No.: HG1K) (antibody)
